How the values were obtained:
human EphB3 = biological target: T1, human EphB3 (Homo sapiens, UniProt P54753); assay: Selectivity ELISA of humanized antibodies for human Eph receptor; assay type: binding; conditions: coated protein 1 nM
T1 construct: a protein of the extracellular region of each human Eph receptor fused with the SEAP protein and the His tag; made in house; host or cells: Expi293F cells
T1 sequence (P54753 34-559 limits assumed): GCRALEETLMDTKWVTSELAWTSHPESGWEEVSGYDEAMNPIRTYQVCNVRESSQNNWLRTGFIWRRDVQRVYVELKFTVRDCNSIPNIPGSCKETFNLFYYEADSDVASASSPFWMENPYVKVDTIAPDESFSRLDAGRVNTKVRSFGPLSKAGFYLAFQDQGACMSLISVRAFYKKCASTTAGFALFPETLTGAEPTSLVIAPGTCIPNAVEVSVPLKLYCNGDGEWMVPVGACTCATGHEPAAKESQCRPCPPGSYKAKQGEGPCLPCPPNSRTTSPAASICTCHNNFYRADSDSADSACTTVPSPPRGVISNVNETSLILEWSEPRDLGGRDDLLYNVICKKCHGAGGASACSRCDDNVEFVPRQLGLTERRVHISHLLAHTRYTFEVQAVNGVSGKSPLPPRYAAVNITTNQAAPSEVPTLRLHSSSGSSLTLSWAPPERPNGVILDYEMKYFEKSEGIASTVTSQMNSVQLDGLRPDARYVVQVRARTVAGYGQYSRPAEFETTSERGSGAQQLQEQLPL
Outline: (§1)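 His-tagged SEAP fusions of each human Eph receptor extracellular region, from Expi293F supernatants, were captured at 1 nM on anti-His-coated wells. Humanized antibody was bound 1 h at room temperature, then detected with HRP […] IgG. TMB development was acid-stopped and read at 450 nm.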

human EphB6 = biological target: T2, human EphB6 (Homo sapiens, UniProt O15197); assay: as above; assay type: binding; conditions: coated protein 1 nM
T2 construct: a protein of the extracellular region of each human Eph receptor fused with the SEAP protein and the His tag; made in house; host or cells: Expi293F cells
T2 sequence (O15197 32-594 limits assumed): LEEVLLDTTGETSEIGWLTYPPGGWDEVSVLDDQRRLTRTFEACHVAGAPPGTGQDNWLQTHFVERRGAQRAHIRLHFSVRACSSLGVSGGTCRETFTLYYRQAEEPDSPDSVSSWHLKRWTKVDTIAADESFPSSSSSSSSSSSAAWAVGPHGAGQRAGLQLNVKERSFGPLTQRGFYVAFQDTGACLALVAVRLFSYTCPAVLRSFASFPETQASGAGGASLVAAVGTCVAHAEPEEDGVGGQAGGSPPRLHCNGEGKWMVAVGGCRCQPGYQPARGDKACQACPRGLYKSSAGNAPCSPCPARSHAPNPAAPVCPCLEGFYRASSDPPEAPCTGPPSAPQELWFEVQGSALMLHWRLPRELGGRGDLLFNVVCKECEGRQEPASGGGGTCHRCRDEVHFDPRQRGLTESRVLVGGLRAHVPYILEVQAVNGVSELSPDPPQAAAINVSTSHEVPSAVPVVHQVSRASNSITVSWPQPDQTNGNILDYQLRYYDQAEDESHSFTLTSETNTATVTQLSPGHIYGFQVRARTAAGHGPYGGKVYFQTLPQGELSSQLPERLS
Outline: as §1

| Molecule | hEphB3-SEAP-: absorbance at 450 nm, percentage with respect to hEphA4-SEAP-His as 100% (human EphB3) [%] | hEphB6-SEAP-: absorbance at 450 nm, percentage with respect to hEphA4-SEAP-His as 100% (human EphB6) [%] |
| --- | --- | --- |
| 155 (antibody, V domains shown, synthetic humanized antibody heavy chain variable region sequence; synthetic humanized antibody light chain variable region sequence) VH: QIQLVQSGSELKKPGASVKVSCKASGYTFTDYSMHWVRQAPGQGLKWMGWINTETGEPTYADDFKGRFVFSLDTSVSTAYLQISSLKAEDTAVYYCARIPLYYYGSRYWYFDVWGQGTTVTVSS VL: DIQMTQSPSSLSASVGDRVTITCRASENIYRNLAWYQQKPGKAPKLLLYAATNLADGVPSRFSGSGSGTDYTLTISSLQSEDFATYYCQHFWGTPWTFGQGTKVEIK | 5.5 | 5.6 |
| 134 (antibody, V domains shown, synthetic humanized antibody heavy chain variable region sequence; synthetic humanized antibody light chain variable region sequence) VH: QVQLVQSGSELKKPGASVKVSCKASGYTFTDYSMHWVRQAPGQGLKWMGWINTETGEPTYAQGFTGRFVFSLDTSVSTAYLQISSLKAEDTAVYYCARIPLYYYGSRYWYFDVWGQGTTVTVSS VL: EIVMTQSPATLSVSPGERATLSCRASENIYRNLAWYQQKPGQSPRLLIYAATNLADGIPARFSGSGSGTEYTLTISSLQSEDFAVYYCQHFWGTPWTFGQGTKVEIK | 5.2 | 5.2 |
| 144 (antibody, V domains shown, synthetic humanized antibody heavy chain variable region sequence; synthetic humanized antibody light chain variable region sequence) VH: QVQLVQSGSELKKPGASVKVSCKASGYTFTDYSMHWVRQAPGQGLEWMGWINTETGEPTYADDFKGRFVFSLDTSVSTAYLQISSLKAEDTAVYYCARIPLYYYGSRYWYFDVWGQGTTVTVSS VL: DIQMTQSPSSLSASVGDRVTITCRASENIYRNLAWYQQKPGKAPQLLLYAATNLADGVPSRFSGSGSGTDYTLTISSLQPEDFATYYCQHFWGTPWTFGQGTKVEIK | 5.8 | 5.9 |
| 133 (antibody, V domains shown, synthetic humanized antibody heavy chain variable region sequence; synthetic humanized antibody light chain variable region sequence) VH: QVQLVQSGSELKKPGASVKVSCKASGYTFTDYSMHWVRQAPGQGLEWMGWINTETGEPTYAQGFTGRFVFSLDTSVSTAYLQISSLKAEDTAVYYCARIPLYYYGSRYWYFDVWGQGTTVTVSS VL: EIVMTQSPATLSVSPGERATLSCRASENIYRNLAWYQQKPGQSPRLLIYAATNLADGIPARFSGSGSGTEYTLTISSLQSEDFAVYYCQHFWGTPWTFGQGTKVEIK | 4.7 | 4.8 |
| 157 (antibody, V domains shown, synthetic humanized antibody heavy chain variable region sequence; synthetic humanized antibody light chain variable region sequence) VH: QVQLVQSGSELKKPGASVKVSCKASGYTFTDYSMHWVRQAPGQGLEWMGWINTETGEPTYAQGFTGRFVFSLDTSVSTAYLQISSLKAEDTAVYYCARIPLYYYGSRYWYFDVWGQGTTVTVSS VL: DIQMTQSPSSLSASVGDRVTITCRASENIYRNLAWYQQKPGKAPQLLLYAATNLADGVPSRFSGSGSGTDYTLTISSLQPEDFATYYCQHFWGTPWTFGQGTKVEIK | 6.4 | 6.3 |
| 132 (antibody, V domains shown, synthetic humanized antibody heavy chain variable region sequence; synthetic humanized antibody light chain variable region sequence) VH: QIQLVQSGSELKKPGASVKVSCKASGYTFTDYSMHWVRQAPGQGLKWMGWINTETGEPTYAQGFTGRFVFSLDTSVSTAYLQISSLKAEDTAVYYCARIPLYYYGSRYWYFDVWGQGTTVTVSS VL: EIVMTQSPATLSVSPGERATLSCRASENIYRNLAWYQQKPGQSPRLLIYAATNLADGIPARFSGSGSGTEYTLTISSLQSEDFAVYYCQHFWGTPWTFGQGTKVEIK | 4.7 | 4.7 |

Results, then the molecule that gave them:

| hEphB3-SEAP-: absorbance at 450 nm, percentage with respect to hEphA4-SEAP-His as 100% (human EphB3) [%] | hEphB6-SEAP-: absorbance at 450 nm, percentage with respect to hEphA4-SEAP-His as 100% (human EphB6) [%] | Molecule |
| --- | --- | --- |
| 6.2 | 6.2 | 160 (antibody, V domains shown, synthetic humanized antibody heavy chain variable region sequence; synthetic humanized antibody light chain variable region sequence) VH: QIQLVQSGSELKKPGASVKVSCKASGYTFTDYSMHWVRQAPGQGLKWMGWINTETGEPTYADDFKGRFVFSLDTSVSTAYLQISSLKAEDTAVYYCARIPLYYYGSRYWYFDVWGQGTTVTVSS VL: DIQMTQSPSSLSASVGDRVTITCRASENIYRNLAWYQQKPGKAPQLLLYAATNLADGVPSRFSGSGSGTDYTLTISSLQPEDFATYYCQHFWGTPWTFGQGTKVEIK |
| 6.5 | 6.3 | 158 (antibody, V domains shown, synthetic humanized antibody heavy chain variable region sequence; synthetic humanized antibody light chain variable region sequence) VH: QVQLVQSGSELKKPGASVKVSCKASGYTFTDYSMHWVRQAPGQGLKWMGWINTETGEPTYAQGFTGRFVFSLDTSVSTAYLQISSLKAEDTAVYYCARIPLYYYGSRYWYFDVWGQGTTVTVSS VL: DIQMTQSPSSLSASVGDRVTITCRASENIYRNLAWYQQKPGKAPQLLLYAATNLADGVPSRFSGSGSGTDYTLTISSLQPEDFATYYCQHFWGTPWTFGQGTKVEIK |
| 5.5 | 5.5 | 159 (antibody, V domains shown, synthetic humanized antibody heavy chain variable region sequence; synthetic humanized antibody light chain variable region sequence) VH: QVQLVQSGSELKKPGASVKVSCKASGYTFTDYSMHWVRQAPGQGLKWMGWINTETGEPTYADDFKGRFVFSLDTSVSTAYLQISSLKAEDTAVYYCARIPLYYYGSRYWYFDVWGQGTTVTVSS VL: DIQMTQSPSSLSASVGDRVTITCRASENIYRNLAWYQQKPGKAPQLLLYAATNLADGVPSRFSGSGSGTDYTLTISSLQPEDFATYYCQHFWGTPWTFGQGTKVEIK |
